Substitutions are numbered along the chain they refer to.
Legend:
cynomolgus CD73 on cells = target: T1, cynomolgus CD73 on cells (cynomolgus); assay: flow cytometry on MK-1 cells, IgG1-TM
T1 construct: whole, on cells; also called native CD73 on MK-1 cells (cynomolgus)
Method: All flow cytometry experiments were run at 4 C and reagents were prepared in PBS/1% FBS buffer. 10,000 cells were incubated with test antibody in 50 uL volume for 4 hours. Cells were washed twice and incubated in 50 uL goat anti-human IgGFc-AlexaFluor647 conjugate for 15 minutes. Cells were washed, resuspended in buffer supplemented with Dapi, and analyzed on a flow cytometer. Dead cells, identified by high Dapi staining, were excluded from the analysis. For the determination of KD values, a plot of the median fluorescence intensity as a function of test antibody concentration was fitted nonlinearly using a one site binding isotherm model.

CD73 chimera KO_Linker = target: T2, CD73 chimera KO_Linker (human; chicken (Gallus gallus)); assay: SPR ProteOn, His-tagged CD73 variant on HTG chip
T2 construct: Human limits converted from mature numbering (+26); also called KO_292-310; linker region-swapped CD73
T2 chain: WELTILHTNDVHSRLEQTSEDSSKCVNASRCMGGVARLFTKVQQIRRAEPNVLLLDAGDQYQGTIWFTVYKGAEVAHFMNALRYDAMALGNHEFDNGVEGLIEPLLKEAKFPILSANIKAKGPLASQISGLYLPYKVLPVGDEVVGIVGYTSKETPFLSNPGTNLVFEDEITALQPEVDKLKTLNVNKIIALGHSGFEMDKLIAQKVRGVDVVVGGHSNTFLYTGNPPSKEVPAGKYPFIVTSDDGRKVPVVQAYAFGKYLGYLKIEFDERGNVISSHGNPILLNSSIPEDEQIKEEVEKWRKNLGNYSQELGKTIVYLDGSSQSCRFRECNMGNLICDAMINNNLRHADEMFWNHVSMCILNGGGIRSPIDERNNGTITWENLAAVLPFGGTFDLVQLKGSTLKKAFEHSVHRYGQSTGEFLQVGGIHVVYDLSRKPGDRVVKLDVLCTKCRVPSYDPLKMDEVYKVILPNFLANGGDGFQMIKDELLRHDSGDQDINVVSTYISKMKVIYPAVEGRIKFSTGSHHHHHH

human CD73 K180A = target: T3, human CD73 K180A (human, UniProt P21589 27-553, K180A); assay: SPR ProteOn, His-tagged CD73 variant on HTG chip
T3 sequence: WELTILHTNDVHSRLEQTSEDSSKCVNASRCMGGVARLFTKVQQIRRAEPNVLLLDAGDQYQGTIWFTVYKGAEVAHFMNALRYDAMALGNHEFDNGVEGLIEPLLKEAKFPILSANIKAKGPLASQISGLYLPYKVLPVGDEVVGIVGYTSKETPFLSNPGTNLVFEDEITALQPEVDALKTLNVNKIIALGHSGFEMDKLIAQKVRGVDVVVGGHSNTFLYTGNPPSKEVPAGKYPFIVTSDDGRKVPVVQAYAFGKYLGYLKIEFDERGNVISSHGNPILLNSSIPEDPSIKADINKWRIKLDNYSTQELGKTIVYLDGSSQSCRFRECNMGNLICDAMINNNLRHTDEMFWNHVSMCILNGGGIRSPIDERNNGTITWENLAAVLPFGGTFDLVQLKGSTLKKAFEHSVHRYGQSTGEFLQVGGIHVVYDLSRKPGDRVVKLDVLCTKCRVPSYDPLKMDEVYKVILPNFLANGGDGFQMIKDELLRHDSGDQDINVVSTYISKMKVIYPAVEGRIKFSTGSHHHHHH

human CD73 V144K + K180A = target: T4, human CD73 V144K + K180A (human, UniProt P21589 27-553); assay: SPR ProteOn, His-tagged CD73 variant on HTG chip
T4 chain: T3 sequence with V144K, T350A

human CD73 N185G = target: T5, human CD73 N185G (human, UniProt P21589 27-553, N185G); assay: SPR ProteOn, His-tagged CD73 variant on HTG chip, 2:1 fit
T5 sequence: T3 sequence with A180K, N185G

B1: MEDI9447 (antibody, V domains shown)
VH: EVQLLESGGGLVQPGGSLRLSCAASGFTFSSYAYSWVRQAPGKGLEWVSAISGSGGRTYYADSVKGRFTISRDNSKNTLYLQMNSLRAEDTAVYYCARLGYGRVDEWGRGTLVTVSS
VL: QSVLTQPPSASGTPGQRVTISCSGSLSNIGRNPVNWYQQLPGTAPKLLIYLDNLRLSGVPDRFSGSKSGTSASLAISGLQSEDEADYYCATWDDSHPGWTFGGGTKLTVL
notes: also called clone 10.3 antibody; 73combo3
With B1 as the binder, how does the Kd (cynomolgus CD73 on cells) read?
The Kd was 0.084 nM.

What about the kon (CD73 chimera KO_Linker) of the same binder?
Its kon is 5.57e+06 M⁻¹ s⁻¹.

And the koff (human CD73 K180A)?
The koff was 0.000154 s⁻¹.

What about the kon (human CD73 K180A) of the same binder?
Its kon is 3.45e+06 M⁻¹ s⁻¹.

And the koff (human CD73 V144K + K180A)?
Its koff is 0.00425 s⁻¹.

And the kon (human CD73 V144K + K180A)?
The kon was 1.58e+06 M⁻¹ s⁻¹.

And the koff (human CD73 N185G)?
Its koff is 0.000245 s⁻¹.

And the kon (human CD73 N185G)?
Its kon is 9.11e+06 M⁻¹ s⁻¹.

— US20160194407A1 (AstraZeneca / MedImmune, published 2016)
